For test [1], the target named is T1, Human RON on cells (3T3-hRON, A2780-hRON, BxPC3, human primary colon cells) (human, UniProt Q04912 25-1400).
T1 construct: That is its entry for human RON
In words: radioligand binding to 3T3-hRON cells for 4 h on ice.

Test [2] has as its target T1, Human RON on cells (3T3-hRON, …). In words: radioligand competition binding on 3T3-hRON cells: fixed 125I-MSP 689R as competitor, unlabeled MSP 689R titrated [Continued) D]. Here is the method:
(§1) MSP proteins were iodinated using the Iodogen method (Thermo Scientific) and purified from free Na¹²⁵I by gel filtration using a NAP-5 column. Specific activities ranged from 12.26 to 18.65 μCi/μg. Competition reaction mixtures were made of a fixed concentration of iodinated MSP and unlabeled MSP serially diluted 1- to 2-fold ten times starting at 5 μM in a volume of 50 μL. 3T3-hRon cells were washed with binding buffer, consisting of DMEM with 1% bovine serum albumin, 325 nM human IgG, 50 mM HEPES (pH 7.2) and 0.1% sodium azide. 150,000 cells in 0.2 ml binding buffer were added to competition reaction mixtures. Competition reactions with cells were incubated for 2 h at room temperature and transferred to a Multiscreen filter plate (Millipore) and washed 4 times with binding buffer. Filters were counted on a Wallac Wizard 1470 gamma counter (PerkinElmer Life and Analytical Sciences). Binding affinities were determined using NewLigand software (Genentech, Inc) (Munson et al., 1980, Anal Biochem 107:220-39).
For orientation: Loss of bound radioactivity is the signal in a displacement assay; it reports binding, not function.

In test [3] the target is T2, Human RON-hIgG1 Fc (RON Sema/PSI/IPT1 fused to human IgG1 Fc) (human).
T2 construct: also called RON-Fc; hRON-Fc
The experiment in a line: plate binding assay, plate-bound RON-Fc, soluble His-tagged MSP, anti-His-HRP, 4-parameter fit. From the text:
Means of three replicates per group are shown. […] C presents results of SPR analysis of MSP proteins binding to immobilized RON Sema/PSI, showing relative response in response units. Data are representative of three independent experiments. […] Competition binding to 3T3-hRON cells (large graphs) used to generate affinities and Scatchard plots (inset graphs) are shown. Mean+/−standard deviation (SD) of three independent experiments is shown. E is a homology model of the structure of RON Sema/PSI (PDB code 4FWW) shown at the bottom, which binds to MSP β (PDB code 2ASU) shown on top. RON and MSP β were globally aligned to the Met/HGF β complex (PDB code 1SHY). Predicted locations of the MSP β contact residues within 4 Å of RON are marked by asterisks. […]
MaxiSorp plates (Nalge Nunc International) were coated overnight at 4° C. with 2 μg/ml of rabbit anti-human IgG Fc specific antibody (Jackson ImmunoResearch Laboratories) in 50 mM sodium carbonate buffer, pH 9.6. […] Bound MSP was detected using anti-His-HRP (Qiagen Inc.) followed by addition of TMB/H₂O₂ substrate (Thermo Scientific). The reaction was stopped with 1M H₃PO₄ and the absorbance at 450 nm (A₄₅₀) was measured on a SpectraMax Plus³⁸⁴ plate reader (Molecular Devices, LLC). The half maximal effective concentration of MSP (EC₅₀) was determined by a 4-parameter fit using Kaleidagraph (Synergy Software).

Test [4] deals with T1, Human RON on cells (3T3-hRON, …). The experiment in a line: radioligand binding to 3T3-hRON cells for 2 h at room temperature. Here is the method: as §1

The source of these data is patent US20160032013A1 (Genentech, published 2016).

T2 sequence (chain, as listed by the source limits assumed): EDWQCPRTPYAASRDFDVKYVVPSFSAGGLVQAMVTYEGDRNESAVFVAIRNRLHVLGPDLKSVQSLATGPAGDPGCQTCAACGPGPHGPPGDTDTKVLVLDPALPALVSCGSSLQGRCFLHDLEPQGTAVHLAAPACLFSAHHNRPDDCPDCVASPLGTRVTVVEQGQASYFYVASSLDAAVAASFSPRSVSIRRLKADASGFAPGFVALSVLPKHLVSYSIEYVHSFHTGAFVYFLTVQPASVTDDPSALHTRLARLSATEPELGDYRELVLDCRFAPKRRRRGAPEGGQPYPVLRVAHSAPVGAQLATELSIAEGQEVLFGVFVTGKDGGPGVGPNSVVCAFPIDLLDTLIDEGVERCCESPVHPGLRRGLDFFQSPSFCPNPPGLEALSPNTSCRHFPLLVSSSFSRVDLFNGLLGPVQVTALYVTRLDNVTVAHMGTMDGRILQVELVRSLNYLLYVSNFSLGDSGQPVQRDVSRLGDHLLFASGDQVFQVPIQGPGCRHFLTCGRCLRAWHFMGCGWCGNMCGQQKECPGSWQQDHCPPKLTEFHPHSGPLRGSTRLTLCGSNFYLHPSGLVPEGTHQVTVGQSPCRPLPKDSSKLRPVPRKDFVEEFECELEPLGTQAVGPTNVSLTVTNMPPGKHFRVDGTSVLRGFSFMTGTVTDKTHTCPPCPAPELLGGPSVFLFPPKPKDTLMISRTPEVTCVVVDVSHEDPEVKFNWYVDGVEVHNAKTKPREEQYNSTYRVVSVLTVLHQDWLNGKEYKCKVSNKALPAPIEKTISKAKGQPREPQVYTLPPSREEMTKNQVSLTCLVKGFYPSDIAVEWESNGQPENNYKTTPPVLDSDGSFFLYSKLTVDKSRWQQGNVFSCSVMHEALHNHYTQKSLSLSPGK

B1: Full length human MSP 689R (wild type + C672A + His tag), active two-chain form (ligand)
chain 1: QRSPLNDFQVLRGTELQHLLHAVVPGPWQEDVADAEECAGRCGPLMDCRAFHYNVSSHGCQLLPWTQHSPHTRLRRSGRCDLFQKKDYVRTCIMNNGVGYRGTMATTVGGLPCQAWSHKFPNDHKYTPTLRNGLEENFCRNPDGDPGGPWCYTTDPAVRFQSCGIKSCREAACVWCNGEEYRGAVDRTESGRECQRWDLQHPHQHPFEPGKFLDQGLDDNYCRNPDGSERPWCYTTDPQIEREFCDLPRCGSEAQPRQEATTVSCFRGKGEGYRGTANTTTAGVPCQRWDAQIPHQHRFTPEKYACKDLRENFCRNPDGSEAPWCFTLRPGMRAAFCYQIRRCTDDVRPQDCYHGAGEQYRGTVSKTRKGVQCQRWSAETPHKPQFTFTSEPHAQLEENFCRNPDGDSHGPWCYTMDPRTPFDYCALRRCADDQPPSILDPPDQVQFEKCGKRVDRLDQRRSKLR
chain 2: VVGGHPGNSPWTVSLRNRQGQHFCGGSLVKEQWILTARQCFSSCHMPLTGYEVWLGTLFQNPQHGEPSLQRVPVAKMVCGPSGSQLVLLKLERSVTLNQRVALICLPPEWYVVPPGTKCEIAGWGETKGTGNDTVLNVALLNVISNQECNIKHRGRVRESEMCTEGLLAPVGACEGDYGGPLACFTHNAWVLEGIIIPNRVCARSRWPAVFTRVSVFVDWIHKVMRLGHHHHHH
notes: Pro-MSP converted with sHepsin into the disulfide-linked alpha/beta heterodimer; Numbering is that of pro-MSP; also called full-length MSP; human full-length MSP
Usually Kd stands for the free concentration of one partner at which half of the binding sites on the other are occupied at equilibrium, for simple one-to-one binding. The EC50 is the concentration needed to bring the measured effect to its halfway point. As for B1, the Kd in test [1] amounted to 23 nM; in test [4], 12.6 nM. In test [2], the “IC50 (read off the curve)” value was about 10 nM. Besides, the EC50 in test [3] amounted to 0.1 nM.
